Key:
Assay in all cases: cell_activity
[1] = test system: SFC1-specific ZFN (synthetic); conditions: yeast, pCUT015 alone; 76% with dual nuclease plasmid pCUT032
[2] = test system: ZFN.gfp (CompoZr zinc finger nuclease heterodimer ZFN.gfp.1/ZFN.gfp.2) (synthetic); conditions: yeast, three integrated target copies; 0 of 96 with empty vector; monomer to half-site assignment not stated; scale: of 96 colonies with all three loci replaced
[3] = test system: FS-specific TALEN (synthetic); conditions: yeast; 3 clones single, 1 double integration; half-sites not stated; scale: clone of 48 with all three ADS cassettes integrated
[4] = test system: YJR030c-specific ZFN (synthetic); conditions: yeast, pCUT016 alone; 63% with dual nuclease plasmid pCUT032

## SFC1 ORF target
[1]
  activity (% GFP-positive): 50

## ACAACTACAACAGCCACAACGTCTATATCATGGCCGACAAGCA (double strand) [ZFN.gfp target in emgfp-delta]
[2]
  activity: 23

## TAGTGGAGGAATTAAAAGAGGAAGTTAAGAAGGAATTGATAACTATCAA (double strand) [FS TALEN target site]
[3]
  activity: 1

## YJR030c ORF target
[4]
  activity (% ADE2-positive): 5
